We go through 94 variants from the supplement of paper PMC10567573.

To fix the notation:
B1: IFRG15 (parent)
chain: INRADYCPECYPDNPANRSLVLPW
B2: MMP1 (parent)
chain: MFFKDRFYMRTNPFYPEVELNFIS
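Note: lentivirally expressed fusions sorted by FACS into six bins by GFP to DsRed ratio, PSI derived from sequencing read proportions per bin multiplied by bin number.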

In one data set the parent is B1. Briefly: protein stability index of a GFP-peptide fusion (GPS, HEK-293T) (PSI 1-6); higher = more stable. Particulars: c terminus: a fixed tail appended.
For the variant INRADYCPECYPDNPANRSLVLHW [P23H], the protein stability index was found to be 1.65.
Take INRADYCPECYPDNPANRSLVLWW [P23W]: the protein stability index came to 2.4.
The same measure, in the same setting: the value for INRADYCPECYPDNPANRSLVLTW [P23T] was 1.59.
Still for that read-out and setting: next, INRADYCPECYPDNPANRSLVLRW [P23R]: 1.58.
On the same count and under the same terms, the value for INRADYCPECYPDNPANRSLVLLW [P23L] was 1.57; that for INRADYCPECYPDNPANRSLVLIW [P23I] was 2.89.
In the case of INRADYCPECYPDNPANRSLVLMW [P23M], the protein stability index worked out at 2.5.
Regarding INRADYCPECYPDNPANRSLVLSW [P23S], the protein stability index turned out to be 2.83.
The same measure, in the same setting: next, INRADYCPECYPDNPANRSLVLKW [P23K]: 1.71; INRADYCPECYPDNPANRSLVLQW [P23Q]: 1.87.
As for INRADYCPECYPDNPANRSLVLNW [P23N], the protein stability index came to 1.65.
For INRADYCPECYPDNPANRSLVLYW [P23Y], the protein stability index amounted to 2.09.
Same read-out and setting: next, INRADYCPECYPDNPANRSLVLPF [W24F]: 2.3; INRADYCPECYPDNPANRSLVLPD [W24D]: 3.89; INRADYCPECYPDNPANRSLVLPI [W24I]: 1.9.
With INRADYCPECYPDNPANRSLVLPK [W24K], the protein stability index was found to be 2.28.
Same read-out and setting: the value for INRADYCPECYPDNPANRSLVLPG [W24G] was 2.69; that for INRADYCPECYPDNPANRSLVLPP [W24P] was 2.62; that for INRADYCPECYPDNPANRSLVLPC [W24C] was 2.31.
As to INRADYCPECYPDNPANRSLVLPE [W24E], the protein stability index worked out at 2.99.
Same read-out and setting: the value for INRADYCPECYPDNPANRSLVLPN [W24N] was 2.46; that for INRADYCPECYPDNPANRSLVLPL [W24L] was 1.8; that for INRADYCPECYPDNPANRSLVLPY [W24Y] was 2.12.
Regarding INRADYCPECYPDNPANRSLVLPT [W24T], the protein stability index is 2.3.
Same read-out and setting: next, INRADYCPECYPDNPANRSLVLPA [W24A]: 2.19.
Regarding INRADYCPECYPDNPANRSLVLPV [W24V], the protein stability index came out at 2.53.
Same read-out and setting: next, INRADYCPECYPDNPANRSLVLPQ [W24Q]: 2.24; INRADYCPECYPDNPANRSLVLPS [W24S]: 2.9.
On the same count and under the same terms, next, INRADYCPECYPDNPANRSLVLPH [W24H]: 2.37; INRADYCPECYPDNPANRSLVLPM [W24M]: 2.23.
Same read-out and setting: next, INRADYCPECYPDNPANRSLVLPR [W24R]: 1.77.

In a further data set the parent is B2. Described as above. Particulars: c terminus: a fixed tail appended.
For the variant MFFVDRFYMRTNPFYPEVELNFIS [K4V], the protein stability index is 1.49.
Still for that read-out and setting: next, MFFRDRFYMRTNPFYPEVELNFIS [K4R]: 2.56; MFFFDRFYMRTNPFYPEVELNFIS [K4F]: 3.7.
The same measure, in the same setting: the value for MFFWDRFYMRTNPFYPEVELNFIS [K4W] was 2.11; that for MFFPDRFYMRTNPFYPEVELNFIS [K4P] was 2.5; that for MFFQDRFYMRTNPFYPEVELNFIS [K4Q] was 4.05.
With MFFIDRFYMRTNPFYPEVELNFIS [K4I], the protein stability index is 3.25.
Same read-out and setting: next, MFFHDRFYMRTNPFYPEVELNFIS [K4H]: 3.26; MFFYDRFYMRTNPFYPEVELNFIS [K4Y]: 3.55.
Same read-out and setting: next, MFFGDRFYMRTNPFYPEVELNFIS [K4G]: 1.72.
With MFFNDRFYMRTNPFYPEVELNFIS [K4N], the protein stability index came out at 2.26.
The same measure, in the same setting: the value for MFFSDRFYMRTNPFYPEVELNFIS [K4S] was 3.15.
MFFMDRFYMRTNPFYPEVELNFIS [K4M]: the protein stability index turned out to be 2.3.
MFDKDRFYMRTNPFYPEVELNFIS [F3D]: the protein stability index is 1.85.
Still for that read-out and setting: next, MFEKDRFYMRTNPFYPEVELNFIS [F3E]: 1.5.
As to MFRKDRFYMRTNPFYPEVELNFIS [F3R], the protein stability index amounted to 1.55.
Regarding MFWKDRFYMRTNPFYPEVELNFIS [F3W], the protein stability index came to 3.61.
Still for that read-out and setting: next, MFPKDRFYMRTNPFYPEVELNFIS [F3P]: 1.48; MFKKDRFYMRTNPFYPEVELNFIS [F3K]: 1.83.
In the case of MFIKDRFYMRTNPFYPEVELNFIS [F3I], the protein stability index was found to be 2.64.
As to MFLKDRFYMRTNPFYPEVELNFIS [F3L], the protein stability index turned out to be 2.29.
Same read-out and setting: next, MFSKDRFYMRTNPFYPEVELNFIS [F3S]: 2.9; MFGKDRFYMRTNPFYPEVELNFIS [F3G]: 4.14; MFQKDRFYMRTNPFYPEVELNFIS [F3Q]: 3.42.
On the same count and under the same terms, next, MFTKDRFYMRTNPFYPEVELNFIS [F3T]: 2.11; MFNKDRFYMRTNPFYPEVELNFIS [F3N]: 1.73.
Take MFHKDRFYMRTNPFYPEVELNFIS [F3H]: the protein stability index is 1.89.
Same read-out and setting: the value for MFYKDRFYMRTNPFYPEVELNFIS [F3Y] was 2.97.
On to MFVKDRFYMRTNPFYPEVELNFIS [F3V], for which the protein stability index came out at 2.82.
On the same count and under the same terms, next, MFFKARFYMRTNPFYPEVELNFIS [D5A]: 2.8.
In the case of MFFKERFYMRTNPFYPEVELNFIS [D5E], the protein stability index turned out to be 2.63.
The same measure, in the same setting: the value for MFFKCRFYMRTNPFYPEVELNFIS [D5C] was 3.75; that for WFFKDRFYMRTNPFYPEVELNFIS [M1W] was 3.52.
Same read-out and setting: the value for DFFKDRFYMRTNPFYPEVELNFIS [M1D] was 2.24; that for YFFKDRFYMRTNPFYPEVELNFIS [M1Y] was 1.86; that for RFFKDRFYMRTNPFYPEVELNFIS [M1R] was 2.2.
For the variant KFFKDRFYMRTNPFYPEVELNFIS [M1K], the protein stability index was 2.94.
Still for that read-out and setting: next, SFFKDRFYMRTNPFYPEVELNFIS [M1S]: 2.84.
Still for that read-out and setting: the value for NFFKDRFYMRTNPFYPEVELNFIS [M1N] was 1.76; that for HFFKDRFYMRTNPFYPEVELNFIS [M1H] was 2.05.
As for FFFKDRFYMRTNPFYPEVELNFIS [M1F], the protein stability index came to 3.03.
Turning to VFFKDRFYMRTNPFYPEVELNFIS [M1V], the protein stability index worked out at 3.89.
As for EFFKDRFYMRTNPFYPEVELNFIS [M1E], the protein stability index was determined as 2.86.
On to CFFKDRFYMRTNPFYPEVELNFIS [M1C], for which the protein stability index came to 2.83.
The same measure, in the same setting: the value for IFFKDRFYMRTNPFYPEVELNFIS [M1I] was 2.17; that for AFFKDRFYMRTNPFYPEVELNFIS [M1A] was 1.89.
The same measure, in the same setting: the value for MKFKDRFYMRTNPFYPEVELNFIS [F2K] was 4.48; that for MNFKDRFYMRTNPFYPEVELNFIS [F2N] was 1.93.
The same measure, in the same setting: next, MCFKDRFYMRTNPFYPEVELNFIS [F2C]: 3.01.
On to MLFKDRFYMRTNPFYPEVELNFIS [F2L], for which the protein stability index is 2.36.
In the case of MQFKDRFYMRTNPFYPEVELNFIS [F2Q], the protein stability index is 2.26.
Take MMFKDRFYMRTNPFYPEVELNFIS [F2M]: the protein stability index came to 2.02.
The same measure, in the same setting: the value for MPFKDRFYMRTNPFYPEVELNFIS [F2P] was 2.06; that for MEFKDRFYMRTNPFYPEVELNFIS [F2E] was 2.98.
On the same count and under the same terms, the value for MAFKDRFYMRTNPFYPEVELNFIS [F2A] was 3.29.
For the variant MDFKDRFYMRTNPFYPEVELNFIS [F2D], the protein stability index came out at 2.71.
Same read-out and setting: next, MVFKDRFYMRTNPFYPEVELNFIS [F2V]: 2.75.
Same read-out and setting: next, MHFKDRFYMRTNPFYPEVELNFIS [F2H]: 2.93.
Consider MSFKDRFYMRTNPFYPEVELNFIS [F2S], for which the protein stability index came out at 2.72.
The same measure, in the same setting: the value for MTFKDRFYMRTNPFYPEVELNFIS [F2T] was 2.29.
As for MIFKDRFYMRTNPFYPEVELNFIS [F2I], the protein stability index came out at 2.59.
In the case of MRFKDRFYMRTNPFYPEVELNFIS [F2R], the protein stability index turned out to be 4.3.
Same read-out and setting: next, MGFKDRFYMRTNPFYPEVELNFIS [F2G]: 3.1.
